The series has as its target purified histone H4 (New England Biolabs), P62805.

B1: purified ACK1 (protein)
chain: GEGPLQSLTCLIGEKDLRLLEKLGDGSFGVVRRGEWDAPSGKTVSVAVKCLKPDVLSQPEAMDDFIREVNAMHSLDHRNLIRLYGVVLTPPMKMVTELAPLGSLLDRLRKHQGHFLLGTLSRYAVQVAEGMGYLESKRFIHRDLAARNLLLATRDLVKIGDFGLMRALPQNDDHYVMQEHRKVPFAWCAPESLKTRTFSHASDTWMFGVTLWEMFTYGQEPWIGLNGSQILHKIDKEGERLPRPEDCPQDIYNVMVQCWAHKPEDRPTFVALRDFLLEAQPTDMRALQDFEEPDKLHIQMNDVITVIEGRAENYWWRGQNTRTLCVGPFPRNVVTSVAGLSAQDISQPLQNSFIHTGHGDSDPRHCW
With B1, the “in vitro kinase assay with all the four core histones, immunoblotting with pY88-H4 antibodies” value was “Presence of band exclusively when ACK1 was incubated with H4”; the “in vitro kinase assay, immunoblotting with pY88-H4 and pTyr antibodies” value was “indeed H4 is directly Tyr-phosphorylated by ACK1”.

(Values after patent publication US20160091498.)
